Measurements: patent US20130330358A1, “CRYSTAL STRUCTURE AND PEPTIDE INHIBITORS OF HAUSP DEUBIQUITINASE” (priority 2011, published 2013)

Target: HAUSP TRAF domain (HAUSP^62-205) (human)
Test: ITC, titration against HAUSP TRAF domain, 20 °C

## EGASTSGM (modifications not checked) [vIRF4^209-216 peptide]
  n (stoichiometry): 0.81

## EQGPADDPGEGPSTG (modifications not checked) [EBNA1^435-449 peptide]
  n (stoichiometry): 0.81

## LVQELQEEKPSSSHL (modifications not checked) [MDM2^137-152 peptide]
  Ka: 90000 M⁻¹
